Assay results: patent publication US7932227 (UNIVERSITY OF VIRGINIA PATENT FOUNDATION, dated 2011)
One block for each binder: values may come before it.

How the values were obtained:
human syndecan-1 (SDC1) [1] = target: T1, human syndecan-1 (SDC1) (human, UniProt P18827 23-310, heparan sulfate and chondroitin sulfate chains; the lacritin-bindable form is partly or wholly deglycanated (heparanase or heparitinase)); test: lacritin-intein-chitin column, detergent lysate of surface biotinylated HSG cells, 1 M NaCl elution, streptavidin blot, mass spectrometry
T1 construct: Seen as 190 kDa multimer and 80 kDa band on blots; also called cell surface SDC1; native SDC1
T1 sequence: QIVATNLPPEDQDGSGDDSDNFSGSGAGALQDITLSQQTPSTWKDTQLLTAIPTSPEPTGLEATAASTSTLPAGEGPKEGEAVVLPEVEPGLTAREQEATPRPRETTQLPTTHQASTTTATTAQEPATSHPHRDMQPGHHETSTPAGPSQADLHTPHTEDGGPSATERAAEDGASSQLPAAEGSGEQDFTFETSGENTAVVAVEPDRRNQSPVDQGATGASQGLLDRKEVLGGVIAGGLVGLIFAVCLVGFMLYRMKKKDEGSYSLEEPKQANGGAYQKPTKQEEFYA
Method: Cell surface biotinylation, and affinity chromatography followed the method of Chen et al (1997). Briefly, six 150 mm culture dishes of 80% confluent HSG cells were washed twice on ice with ice-cold PBS and incubated for 30 min with EZ-Link Sulfo-NHS-LC Biotin (Pierce, Rockford Ill.). Cells were then washed twice with PBS-glycine, gently loosened with a cell scraper, and pelleted at 4° C. The pellet was twice resuspended in 25 ml PBS-glycine, and incubated for 30 min in 1 ml lysis buffer (50 mM Tris HCl, pH 7.4, 100 mM NaCl, 5 mM MnCl2, 2 mM PMSF, 200 mM n-octyl-β-D-glucopyranoside, and protease inhibitors (Roche Diagnostics, Penzberg Germany)). Lysate was centrifuged for 15 min at 4° C., and the supernatant applied to a 1 ml pre-column then washed through with 1 ml of binding buffer (50 mM Tris HCl, pH 7.4, 100 mM NaCl, 5 mM MnCl2, 2 mM PMSF, 50 mM n-octyl-β-D-glucopyranoside) and collected. […] For the latter, blots were blocked with PBS containing 0.1% Tween-20 and 2.5% milk for 1 h at 37° C., washed three times with PBS/0.1% Tween-20, incubated in 50 ml of 1:1000 streptavidin-horseradish peroxidase conjugate (Amersham Biosciences, Piscataway N.J.) in PBS/0.1% Tween-20, washed five times with the same buffer and then detected using ECL reagent (Pierce, Rockford Ill.). […]

human syndecan-4 (SDC4) = target: T2, human syndecan-4 (SDC4) (human, UniProt P31431 19-198, heparan sulfate chains); test: SDC4 purified on FGF2-GST, salt eluted, heparitinase digested, incubated with lacritin-intein beads
T2 construct: also called native SDC4
T2 sequence (looked up): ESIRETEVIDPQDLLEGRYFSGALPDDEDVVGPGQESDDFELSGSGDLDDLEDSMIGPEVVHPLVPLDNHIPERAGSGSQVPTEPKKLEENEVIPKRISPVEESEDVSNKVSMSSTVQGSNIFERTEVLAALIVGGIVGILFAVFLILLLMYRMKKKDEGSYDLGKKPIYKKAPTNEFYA
Method: (§1) Lysates were cleared by centrifugation (20,000×g) at 4° C., and protein concentration of supernatant was estimated by the BCA assay (Pierce, Rockford Ill.). Lacritin-intein or lacritin-GST (5 µg) and FGF2-GST fusion proteins were respectively bound to chitin beads (New England Biolabs, Ipswich Mass.) or glutathione-Sepharose beads (Amersham Biosciences, Piscataway N.J.). Beads were incubated with lysates (~200 µg of SDC1 stably expressing HEK293T cells) overnight at 4° C., and washed three times with binding buffer as above (each wash three times the bead volume). In competition assays, SDC1 lysates were mixed with increasing amounts of soluble lacritin, HS, HS plus CS (Seikagaku America, Falmouth Mass.), bacterially expressed human SDC1 ectodomain (hS1ED), native SDC2, native SDC4, N-24 or C-25. Mixtures were then applied to lacritin immobilized beads, and further studied as described below. For sequential pull down assays, cell lysates were sequentially affinity precipitated with FGF2-GST or lacritin-intein. After FGF2-GST depletion of all available FGF-bindable SDC1, one-half was precipitated with lacritin-intein. The other half was methanol precipitated overnight and resuspended in heparitinase buffer. […]

human syndecan-2 (SDC2) = target: T3, human syndecan-2 (SDC2) (human, UniProt P34741 19-201, heparan sulfate chains); test: SDC2 purified on FGF2-GST, salt eluted, heparitinase digested, incubated with lacritin-intein beads
T3 construct: also called native SDC2
Method: as §1

human syndecan-1 (SDC1) [2] = target: T1, human syndecan-1 (SDC1); test: C-10-intein beads, HEK293T/SDC1 lysate, B-B4 blot
Method: (§2) All lacritin truncations were expressed as intein fusion proteins for affinity precipitation. Asterisk indicates mitogenic domain (Wang et al, submitted), and boxes represent PSIPRED-predicted alpha helices. (B) Lacritin-, C-5-, C-10-, C-15-, C-25- and C-59-intein beads were incubated with lysates from HEK293T cells stably expressing human SDC1. Beads were washed and treated with heparitinase I/chondroitinase ABC. The digests were centrifuged, and pellets (P) and supernatants (S) blotted with mAb B-B4 for SDC1 core protein, all as in FIG. 2. (C) Incubation of lacritin-, N-15- and N-24-intein beads with the same human SDC1 lysates was followed with identical washing, heparitinase I/chondroitinase ABC digestion, centrifugation and B-B4 mAb blotting. Lys, lysate. Figure 3B: Figure 3C: Figure 4A: FIG. 4. Lacritin-SDC1 binding is inhibited by soluble hS1ED, lacritin and N-24, but not by C-25, C-59, HS, CS, SDC2 or SDC4. (A) Top row, lacritin-intein beads were incubated with human SDC1 lysates from stably expressing HEK293T cells in the presence of increasing amounts of soluble HS (70-700 µg), HS (700 µg) plus CS (700 µg), lacritin (14-700 µg) or no inhibitor (−). Quantity of soluble inhibitor was calibrated relative to the approximately 7-8 µg of human SDC1 elutable from lacritin-intein beads with 1 M NaCl. […] (B) Quantification of inhibition binding.

human syndecan-1 (SDC1) [3] = target: T1, human syndecan-1 (SDC1); test: N-15-intein beads, HEK293T/SDC1 lysate, B-B4 blot
Method: as §2

human syndecan-1 (SDC1) [4] = target: T1, human syndecan-1 (SDC1); test: N-24-intein beads, HEK293T/SDC1 lysate, B-B4 blot
Method: as §2

human syndecan-1 (SDC1) [5] = target: T1, human syndecan-1 (SDC1); test: soluble competitor of lacritin-intein beads for SDC1 in HEK293T lysate, B-B4 blot
Method: as §2

[6] = target: T4, alpha-2C-adrenergic receptor (ADRA2C) (human, UniProt P18825 1-462, limits assumed); test: low salt competition against 125I-iodoclonidine on immobilized human ADRA2C, repeated assays
T4 sequence (looked up): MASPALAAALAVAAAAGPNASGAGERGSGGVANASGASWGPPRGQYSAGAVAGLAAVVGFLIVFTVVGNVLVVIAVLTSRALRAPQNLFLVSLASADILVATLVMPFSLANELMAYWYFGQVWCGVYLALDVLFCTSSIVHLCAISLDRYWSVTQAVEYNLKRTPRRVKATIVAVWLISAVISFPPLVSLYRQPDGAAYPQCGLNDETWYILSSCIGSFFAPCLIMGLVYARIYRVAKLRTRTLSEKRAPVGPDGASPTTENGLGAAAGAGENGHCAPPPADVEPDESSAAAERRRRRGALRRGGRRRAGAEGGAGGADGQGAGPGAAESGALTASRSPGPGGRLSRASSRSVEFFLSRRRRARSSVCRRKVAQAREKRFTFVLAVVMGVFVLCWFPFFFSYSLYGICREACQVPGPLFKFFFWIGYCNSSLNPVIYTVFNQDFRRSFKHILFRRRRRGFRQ
Method: If we are correct that syndecan-1 increases lacritin's affinity for a G-protein coupled receptor (GPCR), possibly some low affinity GPCR binding can be detected without syndecan-1 in low salt. To ask this question, a low salt screen of 31 immobilized human GPCRs in which 10 nM lacritin, N-24 or C-25 were asked to compete with 125I-receptor ligand for receptor binding. […] Although preliminary, this compares to 1698 nM for native agonist epinephrine. Possibly N-24's lack of seven negatively charged residues may improve binding in the absence of syndecan-1.

human syndecan-1 (SDC1) [7] = target: T1, human syndecan-1 (SDC1); test: C-5-intein beads, HEK293T/SDC1 lysate, B-B4 blot
Method: as §2

human syndecan-1 (SDC1) [8] = target: T1, human syndecan-1 (SDC1); test: soluble competitor in lacritin-intein affinity precipitation of SDC1
Method: as §2

T3 sequence (P34741 19-201 limits assumed): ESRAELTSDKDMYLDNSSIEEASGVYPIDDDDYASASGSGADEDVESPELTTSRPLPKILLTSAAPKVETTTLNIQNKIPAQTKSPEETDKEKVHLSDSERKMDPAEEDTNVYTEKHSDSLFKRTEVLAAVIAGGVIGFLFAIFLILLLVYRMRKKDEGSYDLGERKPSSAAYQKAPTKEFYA

B1: lacritin-intein (lacritin coupled to chitin beads via chitin-binding intein) (ligand, not shown: small tags and cut ends)
chain: EDASSDSTGADPAQEAGTSKPNEEISGPAEPASPPETTTTAQETSAAAVQGTAKVTSSRQELNPLKSIVEKSILLTEQALAKAGKGMHGGVPGGKQFIENGSEFAQKLLKKFSLLKPWA
notes: Bacterial fusion protein held on chitin beads; also called lacritin-intein beads; lacritin column
binding result (human syndecan-1 (SDC1) [1]): binds | binding result (human syndecan-4 (SDC4)): no binding | binding result (human syndecan-2 (SDC2)): no binding

B2: C-10 lacritin-intein (ligand, not shown: small tags and cut ends)
chain: EDASSDSTGADPAQEAGTSKPNEEISGPAEPASPPETTTTAQETSAAAVQGTAKVTSSRQELNPLKSIVEKSILLTEQALAKAGKGMHGGVPGGKQFIENGSEFAQKLL
binding result (human syndecan-1 (SDC1) [2]): binds

B3: N-15 lacritin-intein (ligand, not shown: small tags and cut ends)
chain: AGTSKPNEEISGPAEPASPPETTTTAQETSAAAVQGTAKVTSSRQELNPLKSIVEKSILLTEQALAKAGKGMHGGVPGGKQFIENGSEFAQKLLKKFSLLKPWA
binding result (human syndecan-1 (SDC1) [3]): binds

B4: N-24 lacritin-intein (ligand, not shown: small tags and cut ends)
chain: ISGPAEPASPPETTTTAQETSAAAVQGTAKVTSSRQELNPLKSIVEKSILLTEQALAKAGKGMHGGVPGGKQFIENGSEFAQKLLKKFSLLKPWA
binding result (human syndecan-1 (SDC1) [4]): binds

More lines, now with the values ahead:

binding result (human syndecan-1 (SDC1) [5]): binds
B5: soluble lacritin (recombinant) (ligand)
chain: B1 chain
notes: also called intact lacritin

Ki [6]: 1290 nM | binding result (human syndecan-1 (SDC1) [5]): binds
B6: soluble N-24 lacritin (ligand)
chain: B4 chain
notes: Range counted by me

binding result (human syndecan-1 (SDC1) [7]): binds
B7: C-5 lacritin-intein (ligand, not shown: small tags and cut ends)
chain: EDASSDSTGADPAQEAGTSKPNEEISGPAEPASPPETTTTAQETSAAAVQGTAKVTSSRQELNPLKSIVEKSILLTEQALAKAGKGMHGGVPGGKQFIENGSEFAQKLLKKFSL
notes: All lacritin truncations were expressed as intein fusion proteins

binding result (human syndecan-1 (SDC1) [8]): no binding (tested: 14 µg)
B8: soluble C-25 lacritin (ligand)
chain: EDASSDSTGADPAQEAGTSKPNEEISGPAEPASPPETTTTAQETSAAAVQGTAKVTSSRQELNPLKSIVEKSILLTEQALAKAGKGMHGGVPGG
notes: Range counted by me

binding result (human syndecan-1 (SDC1) [8]): no binding (tested: 14 µg)
B9: soluble C-59 lacritin (ligand)
chain: EDASSDSTGADPAQEAGTSKPNEEISGPAEPASPPETTTTAQETSAAAVQGTAKVTSSRQ
notes: Range counted by me
